# B1: R4-54: fully human anti-CHI3L1 IgG1 mAb, Table 1 No. 34; heavy chain SEQ ID NO: 33, light chain SEQ ID NO: 34 (antibody, listed as Homo sapiens)
# VH: QVQLVESGGGVVQPGRSLRLSCAASGFTFSSYGMHWVRQAPGKGLEWVAVISYDGSDKDYADSVKGRFTISRDNSKNTLFLQMNSLRAEDTAVYYCARDDYDSTYYFDNWGQGTTVTVSS
# light: SYELTQPPSVSVSPGQTASITCSGDILADQYASWYQQKPGQSPVLVIYHDTKRPSGVPERFSGSTSGNTATLTISGTQAMDEAAYYCQAWDINTAWVFGGGTQLTVLGQPKAAPSVTLFPPSSEELQANKATLVCLISDFYPGAVTVAWKADSSPVKAGVETTTPSKQSNNKYAASSYLSLTPEQWKSHRSYSCQVTHEGSTVEKTVAPTECS
# How the values were obtained:
# [1] = biological target: T1, hCHI3L1/flag-His (Homo sapiens, UniProt P36222); assay: In tandem epitope binning on Octet Red96; type: binding
# T1 construct: human CHI3L1 extracellular domain fused with flag and His tag
# Experimental: In order to know the epitopic coverage for those four antibodies to increase the success of therapeutic CHI3L1 antibody development, epitope binning is used to characterize the binding site of mAbs to the corresponding antigen and summarized in the Table 4. In epitope binning, mAbs specific to the same target protein are tested pairwise against all mAbs in a set to assess whether they block one another's binding to a specific site of the antigen or not. The mAbs that block binding to the same epitope are “binned” together. mAbs within the same bin often function similarly, so epitope bins can narrow down the choices to fewer candidates for investigators to choose from. The in tandem epitope binning assay conducted on Octet Red96 comprised a five-step binding cycle; 1) a buffer baseline was established for 30 sec, 2) 100 nM hCHI3L1/flag-His was captured for 5 min, 3) 100 nM mAb array was loaded to saturate the captured antigen for 10 min, 4) 100 nM of the test mAb was bound for 5 min, and 5) the capture surfaces were regenerated for 30 sec. Anti-His surfaces were regenerated with 10 mM glycine pH 1.7. Raw data was processed using ForteBio's Data Analysis HT Software 11.1 and the antibody pairs were assessed for competitive binding. Additional binding by the second antibody indicates an unoccupied epitope (non-competitor, marked as *c in Table 4), while no binding indicates epitope blocking (competitor, marked as *b in Table 4) and self-competing antibodies were marked as *a in Table 4. Among four anti-CHI3L1 mAbs, there are two epitope clusters.
# [2] = biological target: T2, CHI3L2 (Homo sapiens, UniProt Q15782); assay: ELISA binding specificity, CHI3L2; conditions: mAbs 1 μg/ml; coated protein 2.5 μg/ml to 0 μg/ml
# T2 sequence (Q15782 27-390): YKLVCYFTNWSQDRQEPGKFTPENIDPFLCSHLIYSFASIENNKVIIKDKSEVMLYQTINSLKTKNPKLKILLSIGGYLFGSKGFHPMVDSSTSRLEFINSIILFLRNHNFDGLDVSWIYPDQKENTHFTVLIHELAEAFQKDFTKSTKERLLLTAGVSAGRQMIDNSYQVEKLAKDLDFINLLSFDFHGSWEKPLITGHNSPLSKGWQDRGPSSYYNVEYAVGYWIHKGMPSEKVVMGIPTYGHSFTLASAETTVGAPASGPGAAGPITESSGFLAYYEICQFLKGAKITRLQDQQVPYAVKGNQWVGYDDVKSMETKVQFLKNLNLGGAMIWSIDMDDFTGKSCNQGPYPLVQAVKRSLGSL
# Experimental: (§1) Four selected clones of mAbs including R4-4, R4-54, 293R3-2, and 293R3-4 were further tested for blocking effect on human colorectal (HCT116, SW480, and SW620) and pancreatic cancer cell lines (PANC1 and MiaPaCa-2). […] P values were determined by one-way ANOVA. * P<0.05, ** P<0.01, *** P<0.001, **** P<0.0001. For binding specificity examination, we further coated different concentration of recombinant CHI3L1 protein, and two other major proteins in chitinase family including human chitotriosidase-1 (CHIT1) and CHI3L2 from 2.5 μg/ml to 0 μg/ml, on 96-well plate.
# [3] = test system: MiaPaCa cells; assay: MiaPaCa orthotopic NOD-SCID mice model
# Experimental: Specifically, experimental design of tumor growth inhibition in vivo. MiaPaCa cells (5×10^6) were injected into pancreas of NOD-SCID mice at Day 0. […] Mice were sacrificed on day 34. […] Since fibrosis and angiogenesis are two major issues during tumor progression, we compared the fibrosis and angiogenesis level within each groups.
# [4] = test system: MiaPaCa-2, SW480 and A549 cells; assay: Wound healing assay with rCHI3L1; type: cell-based, human; conditions: MiaPaCa-2, SW480, A549; 16 hours
# Experimental: Since AKT regulates cell migration, we further performed wound healing assay to examine the anti-migratory effect of mAbs on pancreatic (MiaPaCa-2), colorectal (SW480), and lung (A549) cells. We observed that after 16 hours, the wound closure area was increased compared to that in control groups upon rCHI3L1 treatment. […] Taken together, our fully human monoclonal CHI3L1 neutralizing antibody clones R4-4, R4-54, 293R3-2, and 293R3-4 blocked the CHI3L1 induced signaling and cell behaviors of tumor cells. The data was presented as mean±S.D. (n=3 per group). P values were determined by one-way ANOVA. * P<0.05, ** P<0.01, *** P<0.001, **** P<0.0001.
# [5] = test system: HCT116 and A549 cells; assay: Immunoblot of rCHI3L1-induced AKT and ERK phosphorylation, HCT116 and A549; type: cell-based, human; conditions: HCT116 and A549, time course
# Experimental: The involvement of CHI3L1 in intracellular signaling pathways has been reported. For example, CHI3L1 binding to CD44 activates protein kinase B (AKT) and extracellular signal-regulated kinase (ERK) signaling to promote cancer progression (Chen, Jiang et al. 2021). Thus, we tested whether mAb clones R4-4, R4-54, 293R3-2, and 293R3-4 could attenuate AKT and ERK phosphorylation in human pancreatic (PANC1), colorectal (HCT116), and lung (A549) cancer cell lines. PANC1 cells were treated with rCHI3L1 (100 ng/ml) only or rCHI3L1 with different dose of mAbs as indicated for 20 minutes.
# [6] = biological target: CHI3L1-receptor(s) interaction on HCT116, SW480, SW620, PANC1 and MiaPaCa-2 (Homo sapiens, UniProt P36222); assay: Flow cytometry blockage of rCHI3L1-receptor(s) interaction, colorectal and pancreatic cancer cell lines; type: cell-based; conditions: HCT116, SW480, SW620, PANC1, MiaPaCa-2, flow cytometry
# Experimental: CHI3L1 have been reported to interact with several receptors on cancer cells, and trigger downstream signaling for cancer cell growth, proliferation and anti-apoptosis (Kamba et al. 2013; Lee et al. 2016). […] His-tagged rCHI3L1 was added for CHI3L1-receptor(s) interaction. Anti-His antibody AHAb with fluorescent F recognized CHI3L1-receptor(s) R complex for detection (left, FIG. 4A). Once fully human mAbs (nCHI3L1 Ab) blocked the CHI3L1-receptor(s) interaction, the fluorescent F signals were decreased (right, FIG. 4A) and cell signaling CS was blockade.
# as §1
# T1 sequence (P36222 22-383): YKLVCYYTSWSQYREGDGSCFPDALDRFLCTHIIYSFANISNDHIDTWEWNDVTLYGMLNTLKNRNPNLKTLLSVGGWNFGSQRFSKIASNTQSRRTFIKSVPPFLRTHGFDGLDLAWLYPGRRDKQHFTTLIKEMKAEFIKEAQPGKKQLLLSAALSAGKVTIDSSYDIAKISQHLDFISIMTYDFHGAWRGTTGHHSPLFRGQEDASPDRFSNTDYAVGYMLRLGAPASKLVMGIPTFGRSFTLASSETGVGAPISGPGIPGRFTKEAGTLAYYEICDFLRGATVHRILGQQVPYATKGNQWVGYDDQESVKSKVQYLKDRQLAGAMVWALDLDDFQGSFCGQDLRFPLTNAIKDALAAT
# Sequence of CHI3L1-receptor(s) interaction on HCT116, SW480, SW620, PANC1 and MiaPaCa-2 (P36222 22-383): as above
molecule,measurement,setting,value
B1,epitope cluster,[1]; among four anti-CHI3L1 mAbs,unidirectional blocking results
same,"competitive binding class, CHI3L1 293R3-2",[1]; paired with CHI3L1 293R3-2,*^b
same,"Epitope Binning Heat Map value, CHI3L1 293R3-2","[1]; paired with CHI3L1 293R3-2, 100 nM each",0.1002
same,"competitive binding class, CHI3L1 293R3-4",[1]; paired with CHI3L1 293R3-4,*^b
same,"Epitope Binning Heat Map value, CHI3L1 293R3-4","[1]; paired with CHI3L1 293R3-4, 100 nM each",0.1425
same,"competitive binding class, CHI3L1 R4-4",[1]; paired with CHI3L1 R4-4,*^c
same,"Epitope Binning Heat Map value, CHI3L1 R4-4","[1]; paired with CHI3L1 R4-4, 100 nM each",1.1166
same,"competitive binding class, CHI3L1 R4-54",[1]; paired with CHI3L1 R4-54,*^a
same,"Epitope Binning Heat Map value, CHI3L1 R4-54","[1]; paired with CHI3L1 R4-54, 100 nM each",0.2160
same,binding specificity: recognition of CHI3L2,[2],no other chitinase proteins
same,fibrosis indicated by α-SMA,[3]; comparing to IgG control and gemcitabine groups,obviously decrease
same,level of CHI3L1 in intratumoral region and plasma,[3]; end of experiment,lower than IgG control group
same,"infiltrated macrophages in tumor sections (F4/80+, CD206+)","[3]; immunofluorescence, 5 mg/kg i.v.",more macrophages other than M2 phenotype
same,angiogenesis indicated by CD31 expression,"[3]; mAb 5 mg/kg i.v., gemcitabine 50 mg/kg i.p.",decreased in every treatment groups
same,tumor size,"[3]; mAb 5 mg/kg i.v., gemcitabine 50 mg/kg i.p., Day 7, 14, 21, 28, sacrificed day 34",smaller than IgG control group
same,cell migration ability induced by rCHI3L1 (wound closure area),[4],significantly reduced cell migration ability
same,p-AKT and p-ERK levels induced by rCHI3L1,[5],Inhibition of p-AKT and p-ERK
same,rCHI3L1 binding to cells,[6],significantly reduced

# Source: patent US20240400717A1, “Antibody Binding to CHI3L1 for Treating Cancer” (National Cheng Kung University, priority 2021, published 2024)
